Test system: Saccharomyces cerevisiae
Assay: transcriptional activation domain activity (GFP:mCherry ratio, weighted mean of sorted bins, harmonized to initial dataset scale) (arbitrary fluorescence ratio units); higher = stronger transcriptional activation
Details: beta-estradiol 1 µM; induction time 4 h
Summary of the method: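 In diploid yeast carrying a GFP reporter, barcoded protein tiles fused to an estradiol-inducible synthetic transcription factor were integrated at the URA3 locus. Cultures diluted 1:5 into SC with 1 uM beta-estradiol were kept at 30 °C for 4 hours, then sorted by GFP:mCherry ratio into 8 bins before barcode sequencing. Tiles with under 50 reads were excluded. The activation activity reported here is the read-weighted mean of bin median fluorescence, averaged across barcodes and linearly rescaled to the initial dataset.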

Going from “LEQHPKDRVKFSTPELVPLDLKNPELDSSFDLNMNLDLNLNLDSNFNIALNRS” to “SMNYISITAPIYDRGPDSTCLLGSTVCSYFDYDTWTLSLTLWVLIQLTWSMFL”, the “transcriptional activation domain activity” value falls from 97100 to 60800.

Going from “ARAAAQNDDGTPKKGRGRPRKAAAAAATSDEEPAATTPKEPKKRGRKPKAVEP” to “SSSSEPIVLPVPVPVKRGRGRPKGAKNKPKLCEEKKQEEEEERERERERERGT”, the “transcriptional activation domain activity” value falls from 36000 to 12200.

Going from “MIIVFVFFSLFFFLPFLFPLAFFFLFLFPFFLPSYFPSYSLRCSYEGRPSFFF” to “RKEKGRNANNAKKGQNKRGGAQKEKAKTKVKSGEVSAEPGMKRGKRGRRRAAA”, the “transcriptional activation domain activity” value rises from 47100 to 48200.

Compared with “GQTHVHFFPSLSHFYPLFFSFYNVLYPPCLYVRICPISLLLLLWWCFYLTFFC”, “FFSSFLFFSFLFFSVVLSFLLFFSLLFSSPLFFPFLPFPSLSFPSLPSSPLLF” is lower in “transcriptional activation domain activity” value: 44100 for the first, 35200 for the second.

Going from “STARICQMYHWTGNVAIWTHCAILMHPHTIVLWHIWRWDSSWSQASYYFIFWI” to “MSNTYRFVMEEPAEAGKGQQKKRARLVTACDNCRNKKIKCLRTPVSGTCESCK”, the “transcriptional activation domain activity” value falls from 37000 to 27900.

Compared with “RGEILESKFGRSSKPSPRILIVSNSKFYIVAQALVNHQVQISVERSVPLGAIK”, “VYPEKVIFAPFEIFVVLVSFFNLVLFLFCFPFTLYPPKRWLRIVVLLFLFFFC” is lower in “transcriptional activation domain activity” value: 51900 for the first, 50400 for the second.

Going from “SMLNGFAGLDDIPMENILRFLNRFVVNNLLLDILCQCSRHARRTLAGNIFRAA” to “GLCRSGELLLPGAQYHRNPAVRKAWPGIFKWTRRNAMDVIATVWFWLTRADGL”, the “transcriptional activation domain activity” value rises from 47000 to 51100.

Going from “MLYSFSFTTIGYILAFNPPDGRFFYLMLLGLFVQHLIVYVILFVLILLPICVY” to “EAANGDDAEPAAEQNGADIQTAAASPAESTKKDNKKKDKKRSREEEGANGAAA”, the “transcriptional activation domain activity” value rises from 34300 to 39500.

Going from “DCDLTCDTPCTASTSATSGHKFVQDHQSSNNDDVFHKYCKFCEESTDNQPCSK” to “RKEAMDFDAELKRRNTHLYCAIIDLEKEMQLVAYLVCACLKKVTFLHKVCVLE”, the “transcriptional activation domain activity” value rises from 58300 to 67900.

Going from “FGCLGFYPYLYCTGGMVLSHFAPHQNPELYPSDLSIISSLLISILFFCGWTLT” to “SNEGFDYDVELKKKNIGLILAFKEHECDSDQLVAYLVYQRMKRIVWLHKLCVV”, the “transcriptional activation domain activity” value falls from 67900 to 64600.

Going from “AAGETVHFSARAEVLTSKFGRTSKLSPRFIILTEKAVYILLAAARDGRVVVQL” to “AILIRSIFRVAEFAGGCVVSFSLWMCHKTTCIFLRFDTLPLWLAMSLYCVVWP”, the “transcriptional activation domain activity” value rises from 37700 to 49700.

Compared with “TMHLNVVFISVVVNGFCSEHGFVSMRLWAVYKSLSLVLWMSFFIVLCWVGMIV”, “RLVYLMAKNKFGADAQQEFIGDYFRTDSATFRDVRVLFGLLSRSWFGRVWCIQ” is lower in “transcriptional activation domain activity” value: 53600 for the first, 52200 for the second.

Going from “ALDSEQRRKGMSKPAPKKRGRKPNPNKKPKPPRDPNEPPKKRGRKPNPNKKVT” to “MRLFRECALFDTFMLYLNGDCMWVCLCLCFYLDFTVLGWFIIYGLVYCRVDDR”, the “transcriptional activation domain activity” value rises from 42300 to 56000.

Going from “SLFLLVVSINDVQTINFFYFVTDYGSWLEIGTSISHFCIAELFIIFTICLFWL” to “VLLYFCSGYMFAILITVAYILLQFLVPLITDAHVLFFEWTFFEFLFRIWFLLW”, the “transcriptional activation domain activity” value rises from 37800 to 79500.

First: SPSSGLNINFFYHEVLMVLSLFNSMTRPDVMRWYAKTRFYHIVNLTAWQIYPC
Second: IGMGLDAMLILSRLSRFIRIACVVFWWPGFAVFIAACKSLCLLLHFRDVRELR
The “transcriptional activation domain activity” value of the first is lower: 57400 for the first, 63000 for the second.

First: REYHGDTAEIKYGHKVVEIGEDKERGKARVRVEKDGEGGVKEEEVHEADYVVG
Second: HLLYVYLVLIAVVISSYRCFLNVSTRSIVICLLTHAFWPPLTFIIVCSAFWIP
The “transcriptional activation domain activity” value of the first is lower: 22600 for the first, 73100 for the second.

Going from “YILRLFRDYVFFQVDANGKRTFDLGHMMECLLRMDCGSDELICLTSSDEKNVI” to “MHTLVLDFDEDVVEQALRLFNLNSRALTTFLSLLVMEYGIALGPMRHRWITSP”, the “transcriptional activation domain activity” value falls from 49100 to 18100.

First: MIIIDIFLSIYMILSYLYLHLFIFHVHMNPSYFIYFLAFSVKEIFIVSWFFFI
Second: EEKAAGRSAASGGAEGEGKKRKAEGGEGAAGEEKKEKKKGRTYRQREPLAAGG
The “transcriptional activation domain activity” value of the first is higher: 57300 for the first, 54900 for the second.

Going from “AYFAQDSEEELMSPTQSITSNLASEENTRCTTKDLMGTVSIFMLPMVEECYNI” to “AVAALVGVGFGLSGYFLVCNVYPILSSADSKSLCLLVLVLLALSFKVLFFNYY”, the “transcriptional activation domain activity” value falls from 75100 to 48300.

Compared with “IWRCTLFLLYGGHFEAALTCIRASASIGTFRDINVACGRNVAFFLSVLIEKKR”, “HWDGVCRLFFFIYYIYFYFSMRACLLVLILCFESIVFGLVSFLVYLFSPFFFR” is lower in “transcriptional activation domain activity” value: 63000 for the first, 40900 for the second.

Compared with “FLAYVAKRIVWAIIRTIVYLRRDYLGYLSLGRGRSPSNVRGWLANKWYQFLLL”, “HINYFSLSLIIFYFLIFFISNYLLIKFLFFNYFLPKWWSSRPLRSMIYSLFSI” is lower in “transcriptional activation domain activity” value: 50100 for the first, 42500 for the second.

Going from “KKSGTTSKDEKKEGDSDSKATPSSGESAAPSAANNEGGKKEEKSEEKKEEKEE” to “GSEEDAARAASTSRKRRRASAPRTGDGSDDERESSRAEASAGAGAGAEAKPRR”, the “transcriptional activation domain activity” value falls from 41700 to 18600.

First: SLRLLLTVLAGYPIAIVYRLIFLNKTSTIIGASARNWFCLVAGLSLSYYFNSF
Second: TDVYYALRPGYQDDEVWDLLPLPTFPQLHMLTLNMLHISFQFPNWWTLWFKWI
The “transcriptional activation domain activity” value of the first is higher: 70800 for the first, 68900 for the second.

Going from “AWVLSLFLSFFGIGLVLGSGIWDLGFGLVFLFLVFSFFWGWFWVVLCVVYVDR” to “GAAPPPPPPPPARGGGAAPPPPPPPPPARGGAVPPPPPPPPPSGGGPPPPPPP”, the “transcriptional activation domain activity” value falls from 33800 to 33000.

Going from “DRHLDHGQLVYLLHSIVTCPRFQPMVRAIIVSRELPFFVQTWPWPYLSLLART” to “MGASLRVQIWVCIRLELCCSWIWFLASFGILFFFFCFCPLRTSLHSFPLPLYI”, the “transcriptional activation domain activity” value rises from 36100 to 47800.

Going from “PPLSSPFLCFPLCFPLPPLPLFPPSPLFPLSSPPSLFPFPPLPLFNPFLPSLC” to “HSLISWLLKSLENGAGAIVIRKLCSALVTHFVRFSHLWPLCVRSLLYCLHANR”, the “transcriptional activation domain activity” value rises from 29800 to 71400.

First: MCCLLVVLVALSGVGDFFFFSLLLLLLLLERGGVFFLFWLFFFYLFILFFHRG
Second: KVAAGANGETDGEAKTKKKSSKRVSRRRQPGEEDDEEEAEGAGEGAEKAKKNK
The “transcriptional activation domain activity” value of the first is higher: 57000 for the first, 20300 for the second.

Compared with “NMGEQQKFTSPQHIVHKAKFLSNAADSEYSILSNIIYQDTLSNKIPIDILYSN”, “IDSEAEDASRNGKIPKGKKSKKNHCESETEEVIEKQPASTTQKSSKKKHCMRK” is lower in “transcriptional activation domain activity” value: 76900 for the first, 19600 for the second.

First: VGPLSLDIILNKYDQDTELCAIVHESRRMLVRFYDIVKQNAMVIYSVFLWIPT
Second: QSGFNIHLKDAGAGAHMELLTLDQILMFFQGLNNLNLLYFWGVGFDRLAILAF
The “transcriptional activation domain activity” value of the first is lower: 50900 for the first, 59200 for the second.

Going from “LALVIDVRFPKHPTMSNYSLVCAVRALLDFVELARYPVHTDATLRLLNDALRV” to “MAPVTQTEWPRQRALHSKSRNGCTTCKQRRVKCDEGKPVWPSAARTAGADRSS”, the “transcriptional activation domain activity” value falls from 51200 to 50600.

With “MPSCFCFIPEFTALSLPPLCSLFWFRLCTWLFLRMLCTRIYLFCSWFFCLTYF” the “transcriptional activation domain activity” value was 56400.
